Results reported in the supplement of paper PMC7125110.
± gives the standard error. This sample holds only a part of the variants without activity.

B1: glmS ribozyme (parent)
chain: AUAAAAGCGCCAGAACUACAGAAAUGUAGUUGACGAGGAGGAGGUUUAUCGAAUUUUCGGCGGAUGCCUCCAAA

Variants of: B1
Assay: self-cleavage kobs at 2500 uM GlcN6P; higher = faster cleavage; RNA array
Settings: with glucosamine-6-phosphate
Method in brief: (§1)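 In situ transcription by E. coli RNA polymerase produced barcoded ribozyme variants on sequenced MiSeq chips, and a hybridised Cy3 probe tracked them at 37 °C. Glucosamine-6-phosphate was flowed in at 40 μM to 10 mM in HEPES/KCl/Mg(OAc)2 buffer. kcat and KM were taken from weighted Michaelis–Menten fits of kobs values from exponential decay fits.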

Point of comparison: AUAAAAGCGCUGGAGCUACAGAAAUGUAGUUGACGAGGAGGAGGUUUAUCGAAUUUUCGGCGGAUGCCUCCAAA [C11U A12G A15G], “self-cleavage kobs at 2500 uM GlcN6P” value 0.000326 ± 8.5e-05 s⁻¹. Against it:
- AUAAAAGCGCCAGGUCUACAGAAAUGUAGUUGACGAGGAGGAGGUUUUUCGAAUUUUCGGCGGAUGCCUCCAAA [A14G A15U A48U] — 2.5-fold lower, 0.000128 ± 4.1e-05 s⁻¹
- AUAAAAGCGCCAGAACUACAGAAAUGUAUUAGACGAGGAGGAGGUUUAUCGAAUUUUCGGCGGAUGCCGACAAA [G29U U31A U69G C70A] — 3.8-fold lower, 8.63e-05 ± 2.8e-05 s⁻¹
- AUAAAAGCGCCAGAACUACAGAAAUGUAGUUCACGAAGAGGCGGUUUAUCGACUUUUCGGCGGAUGCCUCCAAA [G32C G37A A42C A53C] — lower, < 1e-05 s⁻¹
- AUAAAAGCGCCAGCACUACAGAAAUGUAGGUGACGAGGAGGAGGUUUAUCGGAUUUUCGGCGGAUGCCUCCAAA [A14C U30G A52G] — 7.6-fold lower, 4.27e-05 ± 2.1e-05 s⁻¹
- AUAAAAGCGCCAGAACUACAGAAAUGUAGUUGACUUGGAGGAGGUUUAUCGAUUUUUCGGCGCAUGCCUCCAAA [G35U A36U A53U G63C] — lower, < 1e-05 s⁻¹
- AUAAAGGCGCCAGAUCUACAGAAAUGUAGUUGACGAGGAGGAGGUUUAUCGAAUUUUCCGCGGAUGCCUCCAAA [A6G A15U G59C] — lower, < 1e-05 s⁻¹
- AUAAAAGCGCCAGAUCUACAGAAAUGUAGCAGACGAGGAGGAGGUUUAUCGAAUUUUCGGCGGAUGCCUCCAAA [A15U U30C U31A] — 65-fold higher, 0.0213 ± 0.0088 s⁻¹
- AUAAAAGCGCCAGAACUACAGAAAUGUAGUUGACGAGGAGGAGGUUUAGCGAAUUUUCGGUGGAUGGCUCCAAA [U49G C61U C67G] — lower, < 1e-05 s⁻¹
- AUAAAAGCGCCCGAACUACAGAAAUGUAGUUGACGAGGAGGAGGAUUAUCGAAUUUUCGGCGGAUGGCUCCAAA [A12C U45A C67G] — within error, 0.000527 ± 0.00016 s⁻¹
- AUAAAAGCGCCAGAACUACAGAAAUGUAGUUUACGAGGAGGAGGUUUUUCCAAUUUUCGGCGGAUGCCUCCAAA [G32U A48U G51C] — lower, < 1e-05 s⁻¹
- AUAAAAGCGCCAGAACUACAGAAAUGUACUUGACGAGGAGGAGGUUUAUCGAAUUUUCGGCCGAAGCCUCCAAA [G29C G62C U65A] — lower, < 1e-05 s⁻¹
- AUAAAAGCGCCAGAACUACAGAAAUGUAGUUGACGAGGAGGAAGUUUAUCGAAUUUUCGGCCGUUGCCUGCAAA [G43A G62C A64U C70G] — lower, < 1e-05 s⁻¹
- AUAAAAGCGCCAGAACUACAGAAAUGUAGUUGACGAGAAGGAGGUUUAUAGAAUUUUCGGCGGCUGCCUCCAAA [G38A C50A A64C] — lower, < 1e-05 s⁻¹
- AUAAAGGCGCCAGAACUACAGAAAUGUAGUUGACGAAGAGGAGGUUUAUCGAAUUUUCGGCGGAUUCCUUCAAA [A6G G37A G66U C70U] — lower, < 1e-05 s⁻¹
- AUAAAAGCGCCAGAACUACAGAAAUGUAGUUGGCGAGGAGGAGGUGUAUCGAAUUUUCGGCGGAUGCUUCGAAA [A33G U46G C68U C71G] — 1.8-fold lower, 0.000183 ± 5.3e-05 s⁻¹
- AUAAAAGCGCCAGAACUACAGAAAUGUAUUUGACGGGGAGGGCGUUUAUCGAAUUUUCGGCUGACGCCCCCAAA [G29U A36G A42G G43C G62U U65C U69C] — lower, < 1e-05 s⁻¹
- AUAAAAGCGCCAGAACUACAGAAAUGUAGUUGACGAGGAGGAGGUUUAUCGAGUUUUCGGCGGAUGGUUCCAAA [A53G C67G C68U] — 4.5-fold lower, 7.23e-05 ± 2.2e-05 s⁻¹
- AUAAAAGCGCCAGACCUACAGAAAUGUAGUUAACGAGGAGGAGGUUUAUCGAAUUUUCGGCGGAUGCCACCAAA [A15C G32A U69A] — 3.2-fold lower, 0.000103 ± 3.2e-05 s⁻¹
- AUAAAAGCGCCAGAACUACAGAAAUGUAGUUGACUAGGAGGAGGUUUAUCGAAUUAUCGGCGGAUGCCUCUAAA [G35U U56A C71U] — lower, < 1e-05 s⁻¹
- AUAAAAGGGCCAGAACUACAGAAAUGUAGUUGACGAGGUGGAGGUUUAUCGAAUUUUCGGCGGAUGCCUCAAAA [C8G A39U C71A] — lower, < 1e-05 s⁻¹
- AUAAAAGCGCCAGAUCUACAGAAAUGUAGUUGACGAGGAGGAGCUUUAUCGAUUUUUGGGCGGAUGCCUUCAAA [A15U G44C A53U C58G C70U] — lower, < 1e-05 s⁻¹
- AUAAAAGCGCCAGAACUACAGAAAUGUAGUUGACGAGGAGGAGGUUGAUAGAAUUUUCGGCGGCUGCCUCCAAA [U47G C50A A64C] — 2.6-fold lower, 0.000126 ± 3.2e-05 s⁻¹
- AUAAAAGCGCCAGUACUACAGAAAUGUAGUUCACGAGGAGGAGGUUAAUCGAAUUUUCGGCGGAUGCCUCCAAA [A14U G32C U47A] — 4-fold lower, 8.18e-05 ± 1.8e-05 s⁻¹
- AUAAAGGCGCCAGAACUACAGAAAUGUAGUUUACGAGGAGGAGGGUUAUCGAAUUUUCGGCGGAUGCCUCCAAA [A6G G32U U45G] — lower, < 1e-05 s⁻¹
- AUAAAAGCGCCAGAACUACAGAAAUGUAGUUAUCGAGGAGGAGGUUUAUCUAAUUUUCGGCGGAUGCCUCCAAA [G32A A33U G51U] — lower, < 1e-05 s⁻¹
- AUAAAAGCGCCAGAAUUACAGAAAUGUAGUUGACGAGGAGGAGGUUAAUCGAAUUUUGGGCGGAUGCCUCCAAA [C16U U47A C58G] — 14-fold lower, 2.28e-05 ± 1.1e-05 s⁻¹
- AUAAAAGCGCCAGAACUACAGAAAUGUAGUUUACGAGGUGGAGGUUUAUAGAAUUUUCGGCGGAUGCCUCCAAA [G32U A39U C50A] — lower, < 1e-05 s⁻¹
- AUAAAAGCCCCAGAACUACAGAAAUGUAGUUGACGAGGAGGUGUUUUAUCGAAUUUUCGGCGGAUGCCUCCAAA [G9C A42U G44U] — lower, < 1e-05 s⁻¹
- AUAAAAGCGCCAGAACUACAGAAAUGUAGUUGACGAGGAGGAGGUGUUUCGAAUUUUCGGAGGAUGCCUCCAAA [U46G A48U C61A] — lower, < 1e-05 s⁻¹
- AUAAAAGCGCCAGAACUACAGAAAUGUAUUUGACGAGGAGGAGGUUUAUCGAAUCUUCGCCGGAUGCGUCCAAA [G29U U55C G60C C68G] — lower, < 1e-05 s⁻¹
- AUAAAAGUGCCAUAACUACAGAAAUGUAGUUGACGAGGUGGGGGUUUAUCGAAUUUUCGGCGGAUGCCUCCAAA [C8U G13U A39U A42G] — lower, < 1e-05 s⁻¹
- AUAAAAGCGCCUGAACUACAGAAAUGUAGUUGACGAGGAGGAGGUUUAUCGAAUUUUCGGCGGAGGCCUACAAA [A12U U65G C70A] — 5.1-fold lower, 6.44e-05 ± 2.6e-05 s⁻¹
- AUAAAAGCGCCAGACCUACAGAAAUGUAGUUGACGAGGAGGAGGUUUAUCGAAUUUUCGGCGGAUUCCCCCAAA [A15C G66U U69C] — 7.2-fold lower, 4.52e-05 ± 1.5e-05 s⁻¹
- AUAAAAGCGCCAGCACUACAGAAAUGUAGUUAACGAGGAGGAGGUUUAUCGAAUUUUCGGCGGAUGGCUCCAAA [A14C G32A C67G] — 5.1-fold lower, 6.42e-05 ± 1.9e-05 s⁻¹

Variants of: B1
Assay: self-cleavage kobs at 10000 uM GlcN6P; higher = faster cleavage; RNA array
Settings: with glucosamine-6-phosphate
Method in brief: as §1

Point of comparison: AUAAAAGCGCUGGAGCUACAGAAAUGUAGUUGACGAGGAGGAGGUUUAUCGAAUUUUCGGCGGAUGCCUCCAAA [C11U A12G A15G], “self-cleavage kobs at 10000 uM GlcN6P” value 0.000749 ± 0.00017 s⁻¹. Against it:
- AUAAAAGCGCCUGAACUACAGAAAUGUAGUUGACGAGGAGGAGGUUUAUCGAAUUUUCGGCGGAGGCCUACAAA [A12U U65G C70A] — 6.1-fold lower, 0.000122 ± 2.2e-05 s⁻¹
